In patent publication US20130236944A1, “METHODS FOR THE INACTIVATION OF ANTIBIOTICS” (priority 2011, published 2013):

Assay: Inactivation of amoxicillin by lipases
Type: biochemical, Bacillus subtilis
Conditions: in 168 h, antibiotic 5.15 μg/, approximately 20° C.
Experimental: The plates are incubated 18 hours at 37° C.
In this example, the indicator bacterial strains sensitive to beta-lactam antibiotics (e.g. amoxicillin) and macrolide antibiotics were Bacillus subtilis (CIP 52.62) and Micrococcus luteus (CIP 53.45) respectively. All inactivation studies were performed with final antibiotic concentrations of 5.15 μg/. Lipases were used at final concentrations of 2.5 mg/mL (referred as ‘High concentration’) and 0.5 mg/mL (referred as ‘Low concentration’); they were obtained from Codexis.

B1: Lipase from Pseudomonas cepacia P1: Lipase from Pseudomonas cepacia (also called Bulkholderia cepacia) P1, obtained from Codexis (protein, UniProt P22088 45-364, looked up)
Triacylglycerol lipase: AAGYAATRYPIILVHGLSGTDKYAGVLEYWYGIQEDLQQNGATVYVANLSGFQSDDGPNGRGEQLLAYVKTVLAATGATKVNLVGHSQGGLSSRYVAAVAPDLVASVTTIGTPHRGSEFADFVQDVLAYDPTGLSSSVIAAFVNVFGILTSSSHNTNQDALAALQTLTTARAATYNQNYPSAGLGAPGSCQTGAPTETVGGNTHLLYSWAGTAIQPTLSVFGVTGATDTSTLPLVDPANVLDLSTLALFGTGTVMINRGSGQNDGLVSKCSALYGKVLSTSYKWNHLDEINQLLGVRGAYAEDPVAVIRTHANRLKLAGV
Q: For B1, which Amoxicillin inactivation (enzyme H (High concentration, 2.5 mg/mL)) is on record?
A: +++ in 168 h (100% inactivation = the residual concentration of antibiotic is smaller than the limit of detection of the microbiological test)

Q: And the Amoxicillin inactivation (enzyme L (Low concentration, 0.5 mg/mL))?
A: +++ in 168 h (100% inactivation = the residual concentration of antibiotic is smaller than the limit of detection of the microbiological test)
